{"source": "paper PMC3602352", "key": {"[1]": {"target": "V66A/L68V CzrA (Staphylococcus aureus)", "experiment": "SEC"}, "[2]": {"target": "L68A CzrA (Staphylococcus aureus)", "experiment": "SEC"}, "[3]": {"target": "V66A CzrA (Staphylococcus aureus)", "experiment": "SEC"}, "[4]": {"target": "L68V CzrA (Staphylococcus aureus)", "experiment": "SEC"}, "[5]": {"target": "V66A CzrA (Staphylococcus aureus, UniProt O85142 1-106, V66A)", "experiment": "fluorescence anisotropy"}, "[6]": {"target": "H96C CzrA (Staphylococcus aureus, UniProt O85142 1-106, H96C)", "experiment": "fluorescence anisotropy"}}, "data": [{"molecule": "V66A/L68V CzrA (natural protein)", "values": [{"measurement": "stoichiometry N", "setting": "[1]", "result": 2}]}, {"molecule": "L68A CzrA (natural protein)", "values": [{"measurement": "stoichiometry N", "setting": "[2]", "result": 2}]}, {"molecule": "V66A CzrA (natural protein)", "values": [{"measurement": "stoichiometry N", "setting": "[3]", "result": 2}]}, {"molecule": "L68V CzrA (natural protein)", "values": [{"measurement": "stoichiometry N", "setting": "[4]", "result": 2}]}, {"molecule": "28-bp native CzrO (dsDNA) DNA 1: TAATATATGAACAAATATTCAGATGAAA DNA 2: TTTCATCTGAATATTTGTTCATATATTA", "values": [{"measurement": "binding signal", "setting": "[5]", "result": "460 fold tighter than Zn2 wild-type CzrA"}, {"measurement": "binding result", "setting": "[6]", "result": "binds"}]}]}
